Data reported in PMC2894858 (PLoS ONE, 2010).
Non-standard residues stand in square brackets, D forms with d. No end group written: not given here. Aib = CC(C)(N)C(=O)O

Biological target: botulinum neurotoxin serotype A light chain (Clostridium botulinum, UniProt P0DPI1 1-420)
Test: HPLC-based protease inhibition assay (Dixon plots)
Settings: both partners purified

Chain of botulinum neurotoxin serotype A light chain (P0DPI1 1-420): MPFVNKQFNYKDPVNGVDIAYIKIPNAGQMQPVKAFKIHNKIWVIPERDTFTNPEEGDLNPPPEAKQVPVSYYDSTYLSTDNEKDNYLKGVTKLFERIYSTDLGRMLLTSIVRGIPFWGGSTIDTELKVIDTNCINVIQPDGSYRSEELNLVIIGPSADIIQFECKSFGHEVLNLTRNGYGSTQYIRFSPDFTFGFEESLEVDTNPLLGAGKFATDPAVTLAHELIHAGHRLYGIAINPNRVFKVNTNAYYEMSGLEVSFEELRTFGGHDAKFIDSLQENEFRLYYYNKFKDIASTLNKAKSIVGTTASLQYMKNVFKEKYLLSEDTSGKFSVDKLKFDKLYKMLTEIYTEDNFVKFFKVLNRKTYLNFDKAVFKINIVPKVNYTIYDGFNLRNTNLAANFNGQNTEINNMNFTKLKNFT

Row | Binder | Ki [nM]
1 | RRF[Aib]AML-NH2 [JTH-NB72-39] | 638
2 | RRW[Aib]AML-NH2 (not fully specified) [JTH-NB72-38] | 990
